What was measured:
epas1_mouse Epas1 = epas1_mouse Epas1 (UniProt P97481)
arnt_mouse Arnt [1] = target: arnt_mouse Arnt (UniProt P53762)
arnt_mouse Arnt [2] = target: arnt_mouse Arnt (UniProt P53762); remark: listed apart in the source

Chain of Hif1a, Q61221-1 (Q61221 whole entry): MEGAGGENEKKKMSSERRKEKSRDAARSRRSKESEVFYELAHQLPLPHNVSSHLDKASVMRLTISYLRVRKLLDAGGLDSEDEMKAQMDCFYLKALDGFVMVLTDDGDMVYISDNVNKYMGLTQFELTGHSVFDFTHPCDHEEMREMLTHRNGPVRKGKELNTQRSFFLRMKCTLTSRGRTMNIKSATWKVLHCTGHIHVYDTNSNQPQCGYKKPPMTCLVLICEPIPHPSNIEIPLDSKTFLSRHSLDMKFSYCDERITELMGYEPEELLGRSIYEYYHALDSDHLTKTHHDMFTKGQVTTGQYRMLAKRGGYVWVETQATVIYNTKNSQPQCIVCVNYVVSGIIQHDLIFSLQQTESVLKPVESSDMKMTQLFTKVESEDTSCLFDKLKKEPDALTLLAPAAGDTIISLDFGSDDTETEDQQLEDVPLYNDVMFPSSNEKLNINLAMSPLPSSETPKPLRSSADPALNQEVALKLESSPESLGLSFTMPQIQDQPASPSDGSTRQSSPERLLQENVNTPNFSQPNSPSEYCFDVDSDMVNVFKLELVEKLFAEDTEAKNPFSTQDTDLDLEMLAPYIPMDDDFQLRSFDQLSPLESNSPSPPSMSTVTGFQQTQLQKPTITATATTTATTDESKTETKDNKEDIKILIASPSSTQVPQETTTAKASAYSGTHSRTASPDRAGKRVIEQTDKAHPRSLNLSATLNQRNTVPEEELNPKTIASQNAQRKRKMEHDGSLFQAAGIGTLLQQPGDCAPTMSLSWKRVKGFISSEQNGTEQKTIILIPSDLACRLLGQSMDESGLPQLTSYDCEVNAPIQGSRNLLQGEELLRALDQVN
Chain of Hypoxia-inducible factor 1-alpha (Mus musculus), Q61221-1 R170A (Q61221 whole entry R170A): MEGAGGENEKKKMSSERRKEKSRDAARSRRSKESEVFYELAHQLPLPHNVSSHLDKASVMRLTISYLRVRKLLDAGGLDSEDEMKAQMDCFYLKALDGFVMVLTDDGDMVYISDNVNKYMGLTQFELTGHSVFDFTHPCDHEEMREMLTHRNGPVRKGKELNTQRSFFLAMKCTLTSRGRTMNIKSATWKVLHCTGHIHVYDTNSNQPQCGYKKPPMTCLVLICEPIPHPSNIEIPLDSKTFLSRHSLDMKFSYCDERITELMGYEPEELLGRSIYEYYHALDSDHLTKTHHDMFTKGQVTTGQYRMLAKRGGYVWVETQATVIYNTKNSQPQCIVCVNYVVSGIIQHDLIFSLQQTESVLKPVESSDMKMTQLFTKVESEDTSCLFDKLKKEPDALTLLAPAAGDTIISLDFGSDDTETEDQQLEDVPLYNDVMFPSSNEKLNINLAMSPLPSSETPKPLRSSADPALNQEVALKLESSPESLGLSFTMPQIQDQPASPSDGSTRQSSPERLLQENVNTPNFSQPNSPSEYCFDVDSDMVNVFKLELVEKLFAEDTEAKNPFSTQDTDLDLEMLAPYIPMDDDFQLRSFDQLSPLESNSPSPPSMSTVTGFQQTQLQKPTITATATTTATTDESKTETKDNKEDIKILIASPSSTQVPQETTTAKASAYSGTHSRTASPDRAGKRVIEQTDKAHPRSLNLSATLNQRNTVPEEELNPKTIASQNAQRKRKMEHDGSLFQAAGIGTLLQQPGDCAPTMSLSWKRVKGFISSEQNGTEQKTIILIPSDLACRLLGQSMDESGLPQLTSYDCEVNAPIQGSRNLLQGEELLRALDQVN
Chain of Hypoxia-inducible factor 1-alpha (Mus musculus), Q61221-1 V191D (Q61221 whole entry V191D): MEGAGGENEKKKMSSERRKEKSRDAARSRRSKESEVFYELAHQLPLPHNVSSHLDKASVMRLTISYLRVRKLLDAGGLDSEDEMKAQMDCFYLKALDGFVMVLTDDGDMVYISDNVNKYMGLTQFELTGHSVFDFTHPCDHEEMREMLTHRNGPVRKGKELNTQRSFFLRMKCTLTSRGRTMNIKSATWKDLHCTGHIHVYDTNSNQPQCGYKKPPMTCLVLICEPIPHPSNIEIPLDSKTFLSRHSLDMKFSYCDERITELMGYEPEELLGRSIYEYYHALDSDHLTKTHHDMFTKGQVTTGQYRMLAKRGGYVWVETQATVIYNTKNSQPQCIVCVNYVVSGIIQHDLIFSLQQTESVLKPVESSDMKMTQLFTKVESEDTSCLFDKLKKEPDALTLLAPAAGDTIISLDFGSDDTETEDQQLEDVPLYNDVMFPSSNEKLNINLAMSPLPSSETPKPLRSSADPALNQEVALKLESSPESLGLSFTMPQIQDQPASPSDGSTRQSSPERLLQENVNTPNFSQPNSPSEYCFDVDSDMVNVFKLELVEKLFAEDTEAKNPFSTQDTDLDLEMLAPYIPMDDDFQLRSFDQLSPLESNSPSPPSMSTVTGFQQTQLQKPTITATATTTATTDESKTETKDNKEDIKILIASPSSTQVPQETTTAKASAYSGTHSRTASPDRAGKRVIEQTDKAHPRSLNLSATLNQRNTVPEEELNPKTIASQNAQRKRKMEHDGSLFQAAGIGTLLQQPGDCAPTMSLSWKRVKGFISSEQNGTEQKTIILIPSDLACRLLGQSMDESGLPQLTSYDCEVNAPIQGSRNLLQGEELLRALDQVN
Chain of Hypoxia-inducible factor 1-alpha (Mus musculus), Q61221-1 R170A;V191D (Q61221 whole entry R170A/V191D): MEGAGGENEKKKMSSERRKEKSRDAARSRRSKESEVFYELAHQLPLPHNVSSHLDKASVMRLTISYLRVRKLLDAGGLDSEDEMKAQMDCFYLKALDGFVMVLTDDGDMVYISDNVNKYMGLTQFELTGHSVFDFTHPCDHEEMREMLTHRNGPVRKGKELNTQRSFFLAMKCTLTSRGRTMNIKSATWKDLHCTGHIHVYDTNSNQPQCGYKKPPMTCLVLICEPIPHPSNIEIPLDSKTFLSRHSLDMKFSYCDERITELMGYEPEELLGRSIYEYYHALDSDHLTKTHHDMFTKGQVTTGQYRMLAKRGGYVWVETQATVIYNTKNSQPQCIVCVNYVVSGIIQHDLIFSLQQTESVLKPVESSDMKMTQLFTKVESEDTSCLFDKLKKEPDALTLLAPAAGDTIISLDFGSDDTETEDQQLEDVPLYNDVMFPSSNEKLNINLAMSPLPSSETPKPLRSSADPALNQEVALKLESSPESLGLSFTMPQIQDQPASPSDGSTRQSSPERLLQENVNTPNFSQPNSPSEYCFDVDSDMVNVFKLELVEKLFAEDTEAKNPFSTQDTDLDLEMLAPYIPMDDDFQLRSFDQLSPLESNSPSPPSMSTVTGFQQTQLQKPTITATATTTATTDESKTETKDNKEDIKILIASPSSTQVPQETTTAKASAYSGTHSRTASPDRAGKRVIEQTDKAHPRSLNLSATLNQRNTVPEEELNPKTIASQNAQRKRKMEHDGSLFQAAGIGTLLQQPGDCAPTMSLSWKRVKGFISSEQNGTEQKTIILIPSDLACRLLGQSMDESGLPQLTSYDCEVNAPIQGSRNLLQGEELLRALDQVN

Substance	effect of a mutation on the interaction (epas1_mouse Epas1)	effect of a mutation on the interaction (Hif1a, Q61221-1)	effect of a mutation on the interaction (arnt_mouse Arnt [1])	effect of a mutation on the interaction (arnt_mouse Arnt [2])
Aryl hydrocarbon receptor nuclear translocator (Mus musculus), P53762 A171D	disrupting interaction strength	decreasing interaction strength		
Aryl hydrocarbon receptor nuclear translocator (Mus musculus), P53762 I168D	disrupting interaction strength	disrupting interaction strength		
Aryl hydrocarbon receptor nuclear translocator (Mus musculus), P53762 I264D	disrupting interaction strength	decreasing interaction strength		
Aryl hydrocarbon receptor nuclear translocator (Mus musculus), P53762 I264D;V305D	decreasing interaction strength	decreasing interaction strength		
Aryl hydrocarbon receptor nuclear translocator (Mus musculus), P53762 L112E	disrupting interaction strength	disrupting interaction strength		
Aryl hydrocarbon receptor nuclear translocator (Mus musculus), P53762 L112E;L132E	disrupting interaction strength	disrupting interaction strength		
Aryl hydrocarbon receptor nuclear translocator (Mus musculus), P53762 L132E	disrupting interaction strength	disrupting interaction strength		
Aryl hydrocarbon receptor nuclear translocator (Mus musculus), P53762 L167E	disrupting interaction strength	decreasing interaction strength		
Aryl hydrocarbon receptor nuclear translocator (Mus musculus), P53762 L167E;A171D	disrupting interaction strength	decreasing interaction strength		
Aryl hydrocarbon receptor nuclear translocator (Mus musculus), P53762 R266A	decreasing interaction strength			
Aryl hydrocarbon receptor nuclear translocator (Mus musculus), P53762 R366A	decreasing interaction strength	decreasing interaction strength		
Aryl hydrocarbon receptor nuclear translocator (Mus musculus), P53762 R366A;N448A	disrupting interaction strength	disrupting interaction strength		
Aryl hydrocarbon receptor nuclear translocator (Mus musculus), P53762 V136D	disrupting interaction strength	disrupting interaction strength		
Aryl hydrocarbon receptor nuclear translocator (Mus musculus), P53762 V305D	decreasing interaction strength	decreasing interaction strength		
Endothelial PAS domain-containing protein 1 (Mus musculus), P97481 F169D			decreasing interaction strength	
Endothelial PAS domain-containing protein 1 (Mus musculus), P97481 H194A			decreasing interaction strength	
Endothelial PAS domain-containing protein 1 (Mus musculus), P97481 R171A			decreasing interaction strength	
Endothelial PAS domain-containing protein 1 (Mus musculus), P97481 R171A;V192D			disrupting interaction strength	
Endothelial PAS domain-containing protein 1 (Mus musculus), P97481 V192D			decreasing interaction strength	
Hypoxia-inducible factor 1-alpha (Mus musculus), Q61221-1 R170A				decreasing interaction strength
Hypoxia-inducible factor 1-alpha (Mus musculus), Q61221-1 R170A;V191D				decreasing interaction strength
Hypoxia-inducible factor 1-alpha (Mus musculus), Q61221-1 V191D				decreasing interaction strength

From IntAct's records for PubMed 26245371
